Assay results reported in patent US20150197562A1 (FRAUNHOFER GESELLSCHAFT ZUR FOERDERUNG DER ANGEWANDTEN …, published 2015).
Where two headings read alike, the source gives them in different places.

Columns and labels:
dsRed [1] = target: T1, dsRed; assay: ELISA, coated antigen, goat anti-human IgG-AP, pNPP, absorbance at 405 nm
T1 construct: also called dsRed (horizontal lines)
T1 chain: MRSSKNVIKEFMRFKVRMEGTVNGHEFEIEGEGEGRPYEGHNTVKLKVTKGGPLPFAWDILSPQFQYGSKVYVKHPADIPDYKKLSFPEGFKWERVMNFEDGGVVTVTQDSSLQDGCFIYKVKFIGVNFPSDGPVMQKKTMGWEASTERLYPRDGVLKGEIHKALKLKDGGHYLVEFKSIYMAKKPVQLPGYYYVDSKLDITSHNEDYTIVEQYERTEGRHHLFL

dsRed [2] = target: T1, dsRed; assay: as above

B1: recombinant huMAb-anti-MSP10.2 (antibody, V domains shown)
VH: EVQLVESGGDLVKPGGSLRLSCVVSGFRISTSAMSWVRQVPGKGLEWVSDISESGGSKDYADSVRGRFTISRDTSKNTLYLQMNSLGADDTALYYCAKSVGYFDTSGYYRWDYFDSWGQGTLVTVSS
VL: EIVLTQSPDTLSLSPGETATLSCRASQTVRRNSLAWYQQKPGQAPRLLIYGASDRATGIPDRFSGSGFGTDFTLTVSGLEPEDFAVYYCQQYGTSPRTFGQGTKLEIK
notes: Same heavy chain as huMAb-anti-MSP10.1 with a different kappa light chain; Cloned and expressed like huMAb-anti-MSP10.1 (IgG1m17,1, kappa; N. benthamiana)
binding result (dsRed [1]): no binding (tested: 100 µg/ml)

B2: recombinant huMAb-anti-MSP10.1 (antibody, V domains shown)
VH: B1 VH
VL: EIVLTQSPDILSLSPGERATLSCRASQALTAKYLAWYQQKPGQVPRLLIYGSSTRATGIPDRFRGSGSGTDFTLTISRLEPADSAVYYCQQYEDSPWTFGQGTKLEIK
notes: also called recombinant human anti MSP-10 antibody huMAb-anti-MSP10.1
binding result (dsRed [2]): no binding (tested: 100 µg/ml)
